Assay results reported in patent US20160230173A1.

Biological target: T1, Wild-type glucocorticoid receptor, Myc-DDK tagged NR3C1 (Origene catalog # RC220189), substrate of the CASP1 enzymatic assay
T1 chain: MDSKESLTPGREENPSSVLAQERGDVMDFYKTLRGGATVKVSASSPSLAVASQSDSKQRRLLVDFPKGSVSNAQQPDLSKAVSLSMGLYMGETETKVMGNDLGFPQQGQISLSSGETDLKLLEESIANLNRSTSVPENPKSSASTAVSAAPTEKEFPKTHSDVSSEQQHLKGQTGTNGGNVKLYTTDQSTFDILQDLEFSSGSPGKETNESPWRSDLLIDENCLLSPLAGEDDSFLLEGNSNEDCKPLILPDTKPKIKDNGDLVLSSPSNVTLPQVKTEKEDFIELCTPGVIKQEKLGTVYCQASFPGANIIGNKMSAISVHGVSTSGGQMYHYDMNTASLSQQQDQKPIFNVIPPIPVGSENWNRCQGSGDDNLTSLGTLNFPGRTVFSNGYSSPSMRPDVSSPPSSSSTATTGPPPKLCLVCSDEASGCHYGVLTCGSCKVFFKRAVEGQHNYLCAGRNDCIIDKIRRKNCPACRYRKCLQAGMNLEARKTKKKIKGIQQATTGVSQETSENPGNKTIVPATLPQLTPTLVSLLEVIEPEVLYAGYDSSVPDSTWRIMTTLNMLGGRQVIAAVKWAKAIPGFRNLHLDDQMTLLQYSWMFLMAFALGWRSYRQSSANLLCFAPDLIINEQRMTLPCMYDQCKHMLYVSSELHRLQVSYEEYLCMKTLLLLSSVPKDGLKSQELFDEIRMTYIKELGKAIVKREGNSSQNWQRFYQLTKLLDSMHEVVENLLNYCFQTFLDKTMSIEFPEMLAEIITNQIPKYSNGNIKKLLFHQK

B1: Recombinant human CASP1 (Enzo Life Sciences CASP1 assay kit for drug discovery, catalog number BML-AK701-0001) (protein)
chain: NPAMPTSSGSEGNVKLCSLEEAQRIWKQKSAEIYPIMDKSSRTRLALIICNEEFDSIPRRTGAEVDITGMTMLLQNLGYSVDVKKNLTASDMTTELEAFAHRPEHKTSDSTFLVFMSHGIREGICGKKHSEQVPDILQLNAIFNMLNTKNCPSLKDKPKVIIIQACRGDSPGVVWFKDSVGVSGNLSLPTTEEFEDDAIKKAHIEKDFIAFCSSTPDNVSWRHPTMGSVFIGRLIEHMQEYACSCDVEEIFRKVRFSFEQPDGRAQMPTTERVTLTRCFYLFPGH
**Q.** With B1 as the protein, how does the “cleavage of GR in CASP1 enzymatic assay (western blot)” value read?
**A.** enzymatic assays were performed that revealed glucocorticoid receptor (NR3C1) cleavage by recombinant CASP1
